The supplement of paper PMC9112550, “Optimization of the antimicrobial peptide Bac7 by deep mutational scanning” (BMC Biology, 2022)

What follows are sequences tested on Escherichia coli TOP10 (assay: shrunken log2 fold change of peptide-encoding DNA abundance (4.5 h post-induction vs induction); higher = less antimicrobial activity (less host growth inhibition)). Conditions: time post-induction: 4.5 h; library: site-saturation at positions 5, 18, 19, 20.
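Note: peptides expressed intracellularly from a pBAD plasmid library in pooled LB shake-flask culture, induced with 0.3% L-arabinose, DNA abundance read by NGS, three biological replicates, DESeq2 with apeglm shrinkage.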

Sequence | shrunken log2 fold change
RRIRFRPPRLPRPRPRPFLAPRP | -0.486
RRIRFRPPRLPRPRPRPFLHPRP | -0.329
RRIRFRPPRLPRPRPRPFLQPRP | -0.408
RRIRFRPPRLPRPRPRPFMFPRP | -0.739
RRIRFRPPRLPRPRPRPFPSPRP | -0.179
RRIRFRPPRLPRPRPRPFRAPRP | 0.0466
RRIRFRPPRLPRPRPRPFRHPRP | 0.0504
RRIRFRPPRLPRPRPRPFSHPRP | -1.36
RRIRFRPPRLPRPRPRPFSPPRP | -1.12
RRIRFRPPRLPRPRPRPFSTPRP | -0.0736
RRIRFRPPRLPRPRPRPFTGPRP | -0.246
RRIRFRPPRLPRPRPRPFVQPRP | -0.694
RRIRFRPPRLPRPRPRPFVSPRP | -0.296
RRIRFRPPRLPRPRPRPFWEPRP | -0.193
RRIRFRPPRLPRPRPRPFWPPRP | 0.234
RRIRFRPPRLPRPRPRPFYVPRP | -0.417
RRIRFRPPRLPRPRPRPGAGPRP | 0.289
RRIRFRPPRLPRPRPRPGCTPRP | -0.116
RRIRFRPPRLPRPRPRPGEGPRP | 0.375
RRIRFRPPRLPRPRPRPGENPRP | 0.995
RRIRFRPPRLPRPRPRPGHWPRP | 0.0649
RRIRFRPPRLPRPRPRPGLQPRP | -0.18
RRIRFRPPRLPRPRPRPGMCPRP | -0.0231
RRIRFRPPRLPRPRPRPGMDPRP | -0.25
RRIRFRPPRLPRPRPRPGNCPRP | 0.0888

Sequence | shrunken log2 fold change
RRIRFRPPRLPRPRPRPGNGPRP | 0.228
RRIRFRPPRLPRPRPRPGNQPRP | -0.00933
RRIRFRPPRLPRPRPRPGPDPRP | 0.325
RRIRFRPPRLPRPRPRPGPWPRP | 0.216
RRIRFRPPRLPRPRPRPGQKPRP | -0.0331
RRIRFRPPRLPRPRPRPGRSPRP | 0.183
RRIRFRPPRLPRPRPRPGTGPRP | -0.124
RRIRFRPPRLPRPRPRPGWYPRP | -0.463
RRIRFRPPRLPRPRPRPGYLPRP | -0.0745
RRIRFRPPRLPRPRPRPHANPRP | -0.16
RRIRFRPPRLPRPRPRPHDYPRP | -0.323
RRIRFRPPRLPRPRPRPHEMPRP | -0.0108
RRIRFRPPRLPRPRPRPHGCPRP | -0.064
RRIRFRPPRLPRPRPRPHGSPRP | -0.0241
RRIRFRPPRLPRPRPRPHGVPRP | -0.0563
RRIRFRPPRLPRPRPRPHHCPRP | -0.198
RRIRFRPPRLPRPRPRPHHMPRP | 0.335
RRIRFRPPRLPRPRPRPHICPRP | -0.0238
RRIRFRPPRLPRPRPRPHINPRP | -0.634
RRIRFRPPRLPRPRPRPHIQPRP | -0.594
RRIRFRPPRLPRPRPRPHKIPRP | -0.495
RRIRFRPPRLPRPRPRPHLAPRP | -0.0213
RRIRFRPPRLPRPRPRPHMRPRP | -0.0696
RRIRFRPPRLPRPRPRPHPPPRP | 1.27
RRIRFRPPRLPRPRPRPHPSPRP | -0.107

Sequence | shrunken log2 fold change
RRIRFRPPRLPRPRPRPHQYPRP | -0.88
RRIRFRPPRLPRPRPRPHRPPRP | -0.157
RRIRFRPPRLPRPRPRPHRVPRP | -0.137
RRIRFRPPRLPRPRPRPHSEPRP | -0.276
RRIRFRPPRLPRPRPRPHSRPRP | -0.112
RRIRFRPPRLPRPRPRPHTHPRP | -0.618
RRIRFRPPRLPRPRPRPHTVPRP | 0.0365
RRIRFRPPRLPRPRPRPHVCPRP | -0.0299
RRIRFRPPRLPRPRPRPHWCPRP | -0.262
RRIRFRPPRLPRPRPRPHYVPRP | -1.78
RRIRFRPPRLPRPRPRPIAIPRP | -0.149
RRIRFRPPRLPRPRPRPICQPRP | -0.182
RRIRFRPPRLPRPRPRPICTPRP | -0.218
RRIRFRPPRLPRPRPRPIDDPRP | -0.548
RRIRFRPPRLPRPRPRPIDFPRP | -0.0919
RRIRFRPPRLPRPRPRPIDLPRP | -0.164
RRIRFRPPRLPRPRPRPIEAPRP | -0.181
RRIRFRPPRLPRPRPRPIFSPRP | -0.341
RRIRFRPPRLPRPRPRPIFWPRP | 0.192
RRIRFRPPRLPRPRPRPIHYPRP | -1.14
RRIRFRPPRLPRPRPRPIKSPRP | -0.271
RRIRFRPPRLPRPRPRPIKWPRP | -0.101
RRIRFRPPRLPRPRPRPIMAPRP | -0.0564
RRIRFRPPRLPRPRPRPIMYPRP | -0.33
RRIRFRPPRLPRPRPRPIPDPRP | -0.215

Sequence | shrunken log2 fold change
RRIRFRPPRLPRPRPRPIPEPRP | 0.236
RRIRFRPPRLPRPRPRPIQAPRP | 0.00328
RRIRFRPPRLPRPRPRPIQKPRP | 0.00595
RRIRFRPPRLPRPRPRPIQSPRP | -0.127
RRIRFRPPRLPRPRPRPIREPRP | -0.0362
RRIRFRPPRLPRPRPRPIRVPRP | 0.0245
RRIRFRPPRLPRPRPRPIWCPRP | -0.0176
RRIRFRPPRLPRPRPRPIWQPRP | -0.146
RRIRFRPPRLPRPRPRPIWYPRP | 0.192
RRIRFRPPRLPRPRPRPKAHPRP | -0.0835
RRIRFRPPRLPRPRPRPKAIPRP | -0.0919
RRIRFRPPRLPRPRPRPKAKPRP | -0.016
RRIRFRPPRLPRPRPRPKALPRP | 0.191
RRIRFRPPRLPRPRPRPKAQPRP | -0.0881
RRIRFRPPRLPRPRPRPKAYPRP | -0.436
RRIRFRPPRLPRPRPRPKCLPRP | 0.049
RRIRFRPPRLPRPRPRPKDYPRP | -0.788
RRIRFRPPRLPRPRPRPKEGPRP | 0.0546
RRIRFRPPRLPRPRPRPKEVPRP | 0.0322
RRIRFRPPRLPRPRPRPKFKPRP | -0.238
RRIRFRPPRLPRPRPRPKFNPRP | -0.588
RRIRFRPPRLPRPRPRPKFVPRP | -0.0222
RRIRFRPPRLPRPRPRPKHHPRP | -0.282
RRIRFRPPRLPRPRPRPKHIPRP | -0.615
RRIRFRPPRLPRPRPRPKIVPRP | -0.207

Sequence | shrunken log2 fold change
RRIRFRPPRLPRPRPRPKKLPRP | 0.173
RRIRFRPPRLPRPRPRPKLMPRP | 0.195
RRIRFRPPRLPRPRPRPKNKPRP | -0.384
RRIRFRPPRLPRPRPRPKPKPRP | 0.848
RRIRFRPPRLPRPRPRPKSDPRP | 0.0639
RRIRFRPPRLPRPRPRPKSPPRP | -0.143
RRIRFRPPRLPRPRPRPKVDPRP | -0.0492
RRIRFRPPRLPRPRPRPKVGPRP | -0.01
RRIRFRPPRLPRPRPRPKVLPRP | -0.128
RRIRFRPPRLPRPRPRPKWGPRP | 0.129
RRIRFRPPRLPRPRPRPLAVPRP | 0.249
RRIRFRPPRLPRPRPRPLCNPRP | -0.398
RRIRFRPPRLPRPRPRPLCRPRP | -0.406
RRIRFRPPRLPRPRPRPLDGPRP | -0.143
RRIRFRPPRLPRPRPRPLEFPRP | -0.0464
RRIRFRPPRLPRPRPRPLERPRP | -0.0153
RRIRFRPPRLPRPRPRPLETPRP | 0.105
RRIRFRPPRLPRPRPRPLFAPRP | 0.15
RRIRFRPPRLPRPRPRPLGGPRP | -0.235
RRIRFRPPRLPRPRPRPLGSPRP | 0.192
RRIRFRPPRLPRPRPRPLGYPRP | 0.0222
RRIRFRPPRLPRPRPRPLHSPRP | 0.12
RRIRFRPPRLPRPRPRPLIFPRP | -0.666
RRIRFRPPRLPRPRPRPLIMPRP | -0.352
RRIRFRPPRLPRPRPRPLNPPRP | -0.1

Sequence | shrunken log2 fold change
RRIRFRPPRLPRPRPRPLQQPRP | -0.0115
RRIRFRPPRLPRPRPRPLQTPRP | 0.165
RRIRFRPPRLPRPRPRPLRGPRP | 0.607
RRIRFRPPRLPRPRPRPLSIPRP | -0.203
RRIRFRPPRLPRPRPRPLSKPRP | 0.72
RRIRFRPPRLPRPRPRPLTYPRP | -0.573
RRIRFRPPRLPRPRPRPLWGPRP | 0.251
RRIRFRPPRLPRPRPRPLWMPRP | -0.0523
RRIRFRPPRLPRPRPRPLWSPRP | 0.655
RRIRFRPPRLPRPRPRPMACPRP | -0.00146
RRIRFRPPRLPRPRPRPMCHPRP | -0.325
RRIRFRPPRLPRPRPRPMFCPRP | -0.111
RRIRFRPPRLPRPRPRPMHLPRP | 0.00575
RRIRFRPPRLPRPRPRPMHQPRP | -0.0493
RRIRFRPPRLPRPRPRPMKPPRP | -0.0229
RRIRFRPPRLPRPRPRPMMCPRP | -0.139
RRIRFRPPRLPRPRPRPMNQPRP | -0.528
RRIRFRPPRLPRPRPRPMPTPRP | 0.432
RRIRFRPPRLPRPRPRPMRAPRP | 1.02
RRIRFRPPRLPRPRPRPMRVPRP | 0.973
RRIRFRPPRLPRPRPRPMSCPRP | 0.0282
RRIRFRPPRLPRPRPRPMSTPRP | -0.386
RRIRFRPPRLPRPRPRPMSVPRP | -0.482
RRIRFRPPRLPRPRPRPMTGPRP | -0.0757
RRIRFRPPRLPRPRPRPMTWPRP | 0.478
